For assay [1], the target named is T1, HLA-A*0301 (Homo sapiens, UniProt P04439).
T1 construct: endogenous in cells; host or cells: GM3107
Nature of the assay: HLA class I peptide binding assay. The settings on record: Malaria A3 motif peptides, Table XVI; binding value to HLA-A*0301, unit not given.

For assay [2], the target named is T2, DRB1*0101 (DR1) (Homo sapiens, UniProt P01903+P01911, A100R/D57E/F55L/F60I/F76Y/I96L/L162R/M171V/P40L/Q125E/R42F/V115G/Y59C).
T2 construct: endogenous in cells; host or cells: LG2
Nature of the assay: HLA class II peptide binding assay. The settings on record: for DR1 binding data: Table XIXb, Malaria Super Motif Peptides With Binding Data; for DR1 binding information: unit not given.

Assay [3] addresses T3, DRB1*0401 (DR4w4) (Homo sapiens, UniProt P01903+P01911, A100K/A169T/F76Y/I96L/K127E/L162R/M171V/N62H/P40V/Q125Y/R42H/S133A/S149N/S66Y/V115G/V209L/W38E).
T3 construct: endogenous in cells; host or cells: Preiss
Nature of the assay: HLA class II peptide binding assay. To be noted: for DR4w4 binding data: Table XIXb; for DR4w4 binding information: unit not given.

For assay [4], the target named is T4, DRB1*0405 (DR4w15) (Homo sapiens, UniProt P01903+P01911, A100R/A169T/D86S/F76Y/I96L/K127E/L162R/M171V/N62H/P40V/Q125Y/R42H/S133A/S149N/S66Y/V115G/V209L/W38E).
T4 construct: endogenous in cells; host or cells: KT3
Nature of the assay: HLA class II peptide binding assay. To be noted: for DR4w15 binding data: Table XIXb; for DR4w15 binding information: unit not given.

Assay [5] deals with T5, DRB1*0701 (DR7) (Homo sapiens, UniProt P01903+P01911, A100R/A102G/A103Q/D57E/D86V/E43K/F76Y/K127E/L162R/M171V/P40G/Q125H/Q99D/R33Q/R42Y/R54Q/S133A/S66F/T210M/V115G/Y107V/Y59L/Y89S).
T5 construct: endogenous in cells; host or cells: Pitout
Nature of the assay: biochemical. The assay is classed as binding.

Assay [6] concerns the target T6, DRB1*0802 (DR8w2) (Homo sapiens, UniProt P01903+P01911, A100R/A103L/A169T/F76Y/H45Y/I96F/K41T/L162R/M171V/P40S/Q125H/Q178H/Q39Y/Q99D/R218S/R42G/S66Y/V115G/W38E).
T6 construct: endogenous in cells; host or cells: OLL
Nature of the assay: biochemical. The assay is classed as binding.

Assay [7] has as its target T7, DRB1*1101 (DR5w11) (Homo sapiens, UniProt P01903+P01911, A100R/A169T/A87E/I96F/K41T/L162R/M171V/P40S/Q125H/Q178H/Q39Y/Q99D/R42S/S66Y/T262R/V115G/W38E).
T7 construct: endogenous in cells; host or cells: Sweig
Nature of the assay: biochemical. It is filed as binding.

In assay [8] the target is T8, DRB1*1201 (DR5w12) (Homo sapiens, UniProt P01903+P01911, A100R/A169T/D57E/D86V/F55L/H45Y/K41T/L162R/M171V/P40S/Q125H/Q178H/Q39Y/Q99D/R42G/S66L/T262R/V114A/V67L/W38E/Y59H/Y61H/Y89S).
T8 construct: endogenous in cells; host or cells: Herluf
Nature of the assay: HLA class II peptide binding assay. To be noted: for DR5w12 binding data: Table XIXb.

Assay [9] deals with T9, DRB4*0101 (DRw53) (Homo sapiens, UniProt P01903+P13762, G164S).
T9 construct: expressed in transfected cells; host or cells: L257.6 (fibroblasts)
Nature of the assay: HLA class II peptide binding assay (pH 5.0). To be noted: for DRw53 binding information: DR3a motif peptides, unit not given, exemplary 15-mer containing the core sequence.

In assay [10] the target is T10, DRB5*0101 (DR2w2β2) (Homo sapiens, UniProt P01903+Q30154).
T10 construct: expressed in transfected cells; host or cells: L416.3 (fibroblasts) or GM3107
The assay is classed as binding.

In assay [11] the target is T11, DRB1*0301 (DR3) (Homo sapiens, UniProt P01903+P01911, A100K/A102G/A103R/A169T/F55Y/I96L/K41T/L162R/M171V/P40S/Q125H/Q178H/Q39Y/R42S/S66N/T106N/T262R/W38E/Y61H).
T11 construct: endogenous in cells; host or cells: MAT
Nature of the assay: HLA class II peptide binding assay (pH 4.5). To be noted: for DR3 binding information: unit not given; for DR3 binding data: Table XIXb.

Assay [12] concerns the target T12, DRB1*1501 (DR2w2β1) (Homo sapiens, UniProt P01903+P01911).
T12 construct: expressed in transfected cells; host or cells: L466.1 (fibroblasts)
Nature of the assay: HLA class II peptide binding assay. To be noted: for DR2w2β1 binding information: unit not given.

In assay [13] the target is T13, DRB1*1302 (DR6w19) (Homo sapiens, UniProt P01903+P01911, A100E/A169T/K41T/L162R/M171V/P40S/Q125H/Q178H/Q39Y/Q99D/R42S/S66N/T262R/V115G/W38E/Y61H).
T13 construct: endogenous in cells; host or cells: H0301
Nature of the assay: HLA class II peptide binding assay. The settings on record: unit not given.

Assay [14] addresses T14, DRB1*0901 (DR9) (Homo sapiens, UniProt P01903+P01911, A100R/A103E/D57H/D86V/F55Y/F60I/F76Y/I96F/K127E/L162R/M171V/P40D/Q125H/Q99R/R33Q/R42F/S133A/S66N/T210M/V115G/W38K/Y107V/Y59G/Y89S).
T14 construct: endogenous in cells; host or cells: HID
Nature of the assay: biochemical. The assay is classed as binding.

The mark [15] stands for this setting: DR3a motif peptides, exemplary 15-mer containing the core sequence.

The results in this text go back to patent US20160193316A1 (priority 1994, published 2016).

T3 sequence (P01903 26-254 partner, other chains not shown): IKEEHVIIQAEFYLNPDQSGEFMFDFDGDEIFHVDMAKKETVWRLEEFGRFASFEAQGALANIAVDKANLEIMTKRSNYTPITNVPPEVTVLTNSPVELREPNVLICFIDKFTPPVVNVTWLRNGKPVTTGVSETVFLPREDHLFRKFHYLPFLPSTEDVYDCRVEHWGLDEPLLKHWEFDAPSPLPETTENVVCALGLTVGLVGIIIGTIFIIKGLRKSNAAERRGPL
T7 sequence (P01903 26-254, other chains not shown): as the sequence (P01903 26-254 partner, other chains not shown) above
T2 sequence (P01903 26-254 partner, other chains not shown): as above
T13 sequence (P01903 26-254, other chains not shown): as the sequence (P01903 26-254 partner, other chains not shown) above

On to IAGGLALLA, for which the “A*0301 (binding information)” value in assay [1] came to 0.0002. Further, in assay [2], the DR1 binding data was determined as 0.0160. Further, the DR4w4 binding data in assay [3] is reported as 0.0014. In addition, the DR4w15 binding data in assay [4] worked out at 0.0014. The DR7 binding data in assay [5] is -0.0003. This sequence also showed a DR8w2 binding data in [6] of 0.0004. The DR5w11 binding data in assay [7] is listed as -0.0002. Further, the DR5w12 binding data in assay [8] is reported as 0.0007. Moreover, in assay [9] (Table XIXb, DRw53), the DRw53 binding data is recorded as -0.0005. The DR2w2β2 binding data in assay [10] was 0.0013.
Take IKNSEKDEI: the DR1 binding information in assay [2] (Malaria DR3b motif peptides) came to 0.0002. Besides, the DR3 binding information in assay [11] (Malaria DR3b motif peptides) is listed as -0.0017. The sequence also yielded a DR4w4 binding information in assay [3] (Malaria DR3b motif peptides) of 0.0030. In assay [4] (Malaria DR3b motif peptides), this sequence had a DR4w15 binding information of -0.0010. Moreover, the DR7 binding information in [5] is on record as -0.0011. Besides, the DR8w2 binding information in assay [6] is -0.0007. Further, the DR5w11 binding information in assay [7] was -0.0003. In [12] (Malaria DR3b motif peptides), this sequence yielded a DR2w2β1 binding information of -0.0021. Moreover, in assay [10], the DR2w2β2 binding information was -0.0160.
With IQDSLKESR, the DR1 binding information in [2] (Malaria DR3b motif peptides) is listed as -0.0001. The sequence also came in with a DR3 binding information in [11] (Malaria DR3b motif peptides) of 0.8400. The sequence further gave a DR7 binding information in assay [5] of -0.0014. In assay [6], the DR8w2 binding information amounted to 0.0012. In assay [7], this sequence gave a DR5w11 binding information of -0.0006. Also, the DR6w19 binding information in assay [13] (Malaria DR3b motif peptides) is listed as -0.0002. In assay [12] (Malaria DR3b motif peptides), this sequence displayed a DR2w2β1 binding information of 0.0040. For the same sequence, the DR2w2β2 binding information in [10] is listed as -0.0018.
LGNVSTVLL came in with a DR1 binding data in assay [2] of 0.0430. The same sequence had a DR3 binding data in [11] of 0.0059. The sequence further registered a DR4w4 binding data in [3] of 0.0065. For the same sequence, the DR4w15 binding data in [4] is 0.0360. The DR7 binding data in assay [5] came out at 0.4300. Moreover, the DR8w2 binding data in assay [6] came out at 0.0012. In [14], the DR9 binding data was 0.5300. The DR5w11 binding data in [7] was determined as 0.0005. Also, the DR5w12 binding data in assay [8] is recorded as 0.0001. In assay [12] (Table XIXb, DR2w2β1), the DR2w2β1 binding data came to 0.0240. In addition, the DR2w2β2 binding data in assay [10] was found to be 0.0013.
On to LYADSAWEN, for which, in assay [2] (setting [15]), the DR1 binding information was 0.0002. For the same sequence, the DR3 binding information in assay [11] (setting [15]) came out at 0.3500. The DR7 binding information in assay [5] was -0.0014. Besides, the DR8w2 binding information in assay [6] is on record as -0.0009. Further, the DR5w11 binding information in [7] is -0.0006. This sequence also yielded a DR6w19 binding information in assay [13] (setting [15]) of 0.0003. Besides, in assay [12] (setting [15]), the DR2w2β1 binding information was found to be 0.0005. In [10], the DR2w2β2 binding information is -0.0010.
In turn, VCNDEVDLY displayed a DR1 binding information in assay [2] (setting [15]) of 0.0003. Also, the DR3 binding information in [11] (setting [15]) was -0.0006. Besides, the DR4w4 binding information in assay [3] (setting [15]) was -0.0014. The same sequence had a DR4w15 binding information in assay [4] (setting [15]) of -0.0004. The same sequence displayed a DR7 binding information in assay [5] of -0.0003. Moreover, the DR8w2 binding information in assay [6] is recorded as -0.0003. The DR5w11 binding information in assay [7] turned out to be 0.0001. The DR2w2β1 binding information in assay [12] (setting [15]) was -0.0006. Also, the DRw53 binding information in assay [9] was -0.0010. The sequence also returned a DR2w2β2 binding information in assay [10] of 0.1300.
Regarding VEVEKTASC, the DR1 binding information in assay [2] (setting [15]) is reported as 0.0001. Besides, in [11] (setting [15]), the DR3 binding information is recorded as -0.0041. Further, the DR4w4 binding information in assay [3] (setting [15]) stood at 0.0030. In assay [4] (setting [15]), this sequence yielded a DR4w15 binding information of -0.0014. This sequence returned a DR7 binding information in assay [5] of 0.0073. In [6], this sequence returned a DR8w2 binding information of 0.0006. The sequence further yielded a DR5w11 binding information in assay [7] of 0.0003. In assay [8] (DR3a motif peptides, unit not given, exemplary 15-mer containing the core sequence), this sequence returned a DR5w12 binding information of 0.0001. Also, the DRw53 binding information in [9] is listed as 0.0022. In addition, the DR2w2β2 binding information in assay [10] is -0.0006.
VNHAVPLAM displayed a DR3 binding data in assay [11] of 0.2300. The DR4w4 binding data in assay [3] is 3.900. The sequence also yielded a DR4w15 binding data in assay [4] of 0.0400. In addition, the DR8w2 binding data in [6] came out at 0.200. Besides, the DR9 binding data in assay [14] was 4.000.
